Test results as given in patent US20110189190A1 (Eli Lilly, published 2011).
Residue numbers refer to the chain shown, from its start.

Legend:
human hepcidin-20 [1] = biological target: T1, human hepcidin-20 (human); test: immunoprecipitation from human serum on plate-coated antibody, acid elution, MALDI-TOF mass spectrometry (linear mode)
T1 construct: Endogenous serum form (MW 2192 Da) in the MALDI-TOF experiments
T1 peptide: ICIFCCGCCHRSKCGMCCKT
Description: (§1) Signal 1 has a mass which is consistent with the expected mass of intact human hepcidin-25 (approximate molecular weight (MW) of 2790 Daltons (Da)). Signal 2 has a mass which is consistent with the expected mass of intact human hepcidin-20 (MW of 2192 Da). […] The mass spectrum was generated on a MALDI-TOF mass spectrometer utilizing a positive ion, linear mode method with a-cyano-4-hydroxycinnamic acid (peptide matrix) as sample matrix essentially as described in Example 6 below.
(§2) Anti-human hepcidin Mabs or Fabs are coated onto separate wells of a 96-well standard ELISA plate in carbonate-bicarbonate (pH 9.4) buffer for 1 hour at room temperature at a concentration of 2 mg/L. The wells are then aspirated and washed 3 times with TBST. Human serum samples containing a known amount of hepcidin-25 (diluted in assay buffer) is added at 100 μl/well for one hour at room temperature. The wells are aspirated and washed 3 times with TBST. Captured hepcidin polypeptides are eluted by adding 40 μL/well of 0.1% formic acid for 5 minutes at room temperature. […] The sample is dried and analyzed with a 4700 TOF-TOF Mass Spectrometer (Applied Biosystems) operated in the linear mode.

human hepcidin-25 [2] = biological target: T2, human hepcidin-25 (human); test: as above
T2 construct: also called mature human hepcidin; human hepcidin-25 control peptide
T2 peptide: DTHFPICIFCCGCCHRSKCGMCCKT
Description: as §1, §2

human hepcidin-25 [3] = biological target: T2, human hepcidin-25; test: SPR, Mab immobilized on CM4 chip
Protocol: The flow cells were then injected with human hepcidin-25. Next, the flow cells were injected with Mab 5E8.

human hepcidin-25 [4] = biological target: T2, human hepcidin-25; test: SPR, 25 C, Mab captured, hepcidin-25 injected
Protocol: A SPR biosensor such as the BlAcore® T100 may be used to measure binding kinetics and affinity of antibodies such as the antibodies disclosed herein. The BIAcore® system utilizes the optical properties of SPR to detect alteration in protein concentration of interacting molecules within a dextran biosensor matrix. Except as noted, all reagents and materials are purchased from BIAcore® AB (Upsala, Sweden). All measurements are performed at 25° C. Samples are dissolved in HBS-EP buffer (150 mM sodium chloride, 3 mM EDTA, 0.05% (w/v) surfactant P-20, and 10 mM HEPES, pH 7.4). To capture Fabs with human kappa, goat-anti-human kappa is immobilized on flow cells 1 to 4 of a CMS sensor chip at a level of 5000-10000 response units (Rus) using an amine coupling kit. To capture Mabs with mouse IgG1, goat-anti-mouse Fc gamma is immobilized on flow cells 1 to 4 of a CMS sensor chip at a level of 5000-10000 Rus using an amine coupling kit. […] Fabs prepared from E. coli periplasma and Mabs prepared from mammalian cell culture are evaluated using multiple analytical cycles. […] The measurements are obtained at 25° C. and the association and dissociation rates for each cycle are evaluated using a “1:1 with mass transfer” binding model in the BIAevaluation software.

human hepcidin-20 [5] = biological target: T1, human hepcidin-20; test: MSD sandwich immunoassay: Mab OH4 capture, ruthenium-labelled Mab 3.23 detection; no sandwich signal (assigned to the capture antibody OH4)
Protocol: (§3) Streptavidin-coated and blocked wells of an ELISA plate were incubated for 1 hour with biotinylated Mab OH4 at a concentration of 2 mg/L. Afterward, wells were aspirated and washed three times with TBST (Tris buffered saline containing 10 mmol/L Tris pH 7.40, 150 mmol/L NaCl with 1 mL Tween 20/L). Next, 100 μL of hepcidin standards (varying concentrations of synthesized hepcidin-25 protein in assay buffer consisting of 50 mmol/L HEPES, pH 7.40, 150 mmol/L NaCl, 10 mL/L Triton X-100, 5 mmol/L EDTA, and 5 mmol/L EGTA) were added to the wells to generate a calibration curve. At the same time, serum samples were diluted 1:20 in assay buffer and added to their respective wells, and the ELISA plate was allowed to incubate for 1 hour at room temperature. […] Following aspiration, wells were washed three times with TBST, and the ELISA plate was developed using a MSD reader, which passed a voltage across the wells and recorded ruthenium electrochemiluminescence from each well. MSD software and SigmaPlot version 8.0 were used for fitting of the calibration curves for the ELISA.
(§4) Synthesized hepcidin-25 protein was prepared at a concentration of 10 μg/L and serially diluted to create a standard curve.

human hepcidin-22 [6] = biological target: T3, human hepcidin-22 (human); test: as above
T3 construct: Endogenous serum form (MW 2436 Da) in the MALDI-TOF experiments
T3 peptide: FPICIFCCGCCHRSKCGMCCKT
Protocol: as §3, §4

human hepcidin-20 [7] = biological target: T1, human hepcidin-20; test: immunoprecipitation from human serum, MALDI-TOF mass spectrometry
Protocol: Anti-human hepcidin Mabs or Fabs are coated onto separate wells of a 96-well standard ELISA plate in carbonate-bicarbonate (pH 9.4) buffer for 1 hour at room temperature at a concentration of 2 mg/L. The wells are then aspirated and washed 3 times with TBST. Human serum samples containing a known amount of hepcidin-25 (diluted in assay buffer) is added at 100 μl/well for one hour at room temperature. The wells are aspirated and washed 3 times with TBST. Captured hepcidin polypeptides are eluted by adding 40 μL/well of 0.1% formic acid for 5 minutes at room temperature. The eluted samples are collected and concentrated with a C4 ZipTip™ (Millipore, Billerica, Mass.), a 10 μL pipette tip with a bed of chromatography media for purifying and concentrating femtomoles to picomoles of protein or peptides, ideally ranging from 25,000 MW to 100,000 MW. […] The sample is dried and analyzed with a 4700 TOF-TOF Mass Spectrometer (Applied Biosystems) operated in the linear mode.
(§5) Similar experiments were performed using MALDI-TOF spectrometry to determine which hepcidin species in human serum are bound by Mab 5E8. These experiments determined that Mab 5E8 bound only hepcidin-25 in human serum (FIGS. 3 and 4). […]

mouse hepcidin-25 [8] = biological target: T4, mouse hepcidin-25 (mouse); test: SPR, 25 C, Mab captured
T4 peptide: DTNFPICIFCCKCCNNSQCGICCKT

rat hepcidin-25 [9] = biological target: T5, rat hepcidin-25 (rat); test: SPR, 25 C, Mab captured
T5 peptide: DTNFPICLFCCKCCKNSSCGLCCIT

human hepcidin-25 [10] = biological target: T2, human hepcidin-25; test: immunoprecipitation from human serum on plate-coated antibody, acid elution, MALDI-TOF mass spectrometry (linear mode)
Description: FIG. 3 depicts a MALDI-TOF mass spectrum of the forms of human hepcidin immunoprecipitated from human sera with the anti-hepcidin-25 selective Mab 5E8. Signal 1 has a mass which is consistent with the expected mass of intact human hepcidin-25 (2790 Da). […] The mass spectrum was generated on a MALDI-TOF mass spectrometer utilizing a positive ion, linear mode method with a-cyano-4-hydroxycinnamic acid (peptide matrix) as sample matrix essentially as described in Example 6 below.
as §2, with “TBST.” for “TBST. Captured hepcidin polypeptides are eluted by adding 40 μL/well of 0.1% formic acid for 5 minutes at room temperature.”
as §5

human hepcidin-25 [11] = biological target: T2, human hepcidin-25; test: SPR
human hepcidin-25 [12] = biological target: T2, human hepcidin-25; test: SPR, 25 C
human hepcidin-20 [13] = biological target: T1, human hepcidin-20; test: SPR, 25 C, Mab captured
mouse hepcidin-25 [14] = biological target: T4, mouse hepcidin-25; test: SPR, 25 C
rat hepcidin-25 [15] = biological target: T5, rat hepcidin-25; test: SPR, 25 C
human hepcidin-22 [16] = biological target: T3, human hepcidin-22; test: SPR, 25 C
human hepcidin-25 [17] = biological target: T2, human hepcidin-25; test: SPR, Mab captured by anti-mouse IgG1 Fc
Protocol: Briefly, on a Biacore® T100, goat anti-mouse IgG1 Fc polyclonal antibody was immobilized onto flow cell 1 to 4 of CMS chip at 5000-15000 response units (Ru). Mab 5E8 was captured on flow cell 2, Mab 4C11 was captured on flow cell 3, and Mab 3A9 was captured on flow cell 4. Flow cell 1 was used as a reference flow cell. All flow cells were then injected with human hepcidin-25.

B1: Anti-hepcidin Mab 3.23 (antibody, human IgG4 S228P, kappa, V domains shown)
VH: QVQLVQSGAEVKKPGSSVKVSCKASGYTFLIYPISWVRQAPGQGLEWMGNFHPYLGVTNYVEKFKGRVTITADKSTSTAYMELSSLRSEDTAVYYCARGGTGSFDYWGQGTTVTVSS
VL: DIQMTQSPSSLSASVGDRVTITCSASSRVSSTYLFWYQQKPGKAPKLLIYRTSPLASGVPSRFSGSGSGTDFTLTISSLQPEDFATYYCQQWSGYPFVFGGGTKVEIKR
Question: What does the source list for B1?
Answer: binding result (human hepcidin-20 [1]): binds; binding result (human hepcidin-25 [2]): binds

B2: Anti-hepcidin Mab 3.12 (antibody, human IgG4 S228P, kappa, V domains shown)
VH: B1 VH with V61L
VL: B1 VL with P54T, A56T
Question: Does B2 bind (human hepcidin-25 [3])?
Answer: Result: binds

B3: mouse monoclonal antibody OH4 (antibody, mouse IgG1, kappa, V domains shown)
VH: EVKLVESGGGLVKPGGSLKISCAASGFAFSSYDMSWVRQTPEKRLEWVATIISGGTYTYYPDSVKGRFTISRDNARNTLNLQMSSLRAEDTALYYCADDGYIHWGQGTLVTVSA
VL: DIVMTQIPLTLSVTIGQPASISCKSSQSLLYPNGKTYLTWLLQRPGQSPKRLIYLVSKLDPGVPDRFTGSGSGADFTLKISRVEAEDLGIYYCIQGSHFPWTFGGGTKLELKR
notes: also called Mab OH4
Question: What does the source list for B3?
Answer: Kd (human hepcidin-25 [4]): ~1.2 nM; binding result (human hepcidin-20 [5]): no binding (tested: 10 ug/L); binding result (human hepcidin-22 [6]): no binding (tested: 10 ug/L)

B4: mouse monoclonal antibody 5E8 (antibody, mouse IgG1, kappa, V domains shown)
VH: B3 VH
VL: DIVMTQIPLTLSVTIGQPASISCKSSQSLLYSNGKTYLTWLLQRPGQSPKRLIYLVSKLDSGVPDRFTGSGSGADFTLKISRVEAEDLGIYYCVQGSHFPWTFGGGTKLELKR
notes: also called Mab 5E8
Question: Which results are given for B4?
Answer: binding result (human hepcidin-20 [7]): no binding; binding result (mouse hepcidin-25 [8]): no binding; binding result (rat hepcidin-25 [9]): no binding; binding result (human hepcidin-25 [10]): binds

B5: mouse monoclonal antibody 3A9 (antibody, mouse IgG1, kappa, V domains shown)
VH: EVKLVESGPGILQPSQTLSLTCSFSGFSLNSYGFGIGWIRQPSGKGLEWLTHIWWNGNKYYNTTLKSRLTISKDTSNNQVFLKIASLDTADTATYYCALIHYYGNSYGFAYWGQGTLVTVSA
VL: DIQMNQSPALMSASPGEKVTMTCSASSSVSSMYWYQQKPRSSPKPWIYLTSNLASGVPPRFSGSGSGTSYSLTISNMEAEDAATYYCQQWSSYPPTFGGGTKLEIKR
notes: also called Mab 3A9
Question: Does B5 bind (human hepcidin-25 [11])?
Answer: Result: binds

B6: mouse monoclonal antibody OB3 (antibody, mouse IgG1, kappa, V domains shown)
VH: B3 VH
VL: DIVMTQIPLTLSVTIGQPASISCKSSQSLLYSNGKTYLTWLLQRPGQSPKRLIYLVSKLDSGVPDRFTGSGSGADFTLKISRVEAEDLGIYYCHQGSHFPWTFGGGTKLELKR
Question: Does B6 bind (human hepcidin-25 [12])?
Answer: Result: binds

B7: mouse monoclonal antibody OB1 (antibody, mouse IgG1, kappa, V domains shown)
VH: B3 VH
VL: B3 VL with P32R, I94H
Question: Does B7 bind (human hepcidin-25 [12])?
Answer: Result: binds

B8: mouse monoclonal antibody OE1 (antibody, mouse IgG1, kappa, V domains shown)
VH: B3 VH
VL: B3 VL with I94F, T102V
notes: also called 0E1
Question: Does B8 bind (human hepcidin-25 [12])?
Answer: Result: binds

B9: mouse monoclonal antibody 4C11 (antibody, mouse IgG1, kappa, V domains shown)
VH: QVQLKQSGPGILQPSQTLSLTCSFSGFSLSTYGIGVGWIRQPAGKGLEWLAHIWWNDNKSYNTALKSRLTISKDTSNNQVFLKIASVDTTHTATYYCVVIGYYGSTSGFAYWGQGTLVTVSA
VL: B5 VL with D1Q, Q3L, M4L, N5T, S31Y, P59A, N76S, Y93N
notes: also called Mab 4C11
Question: Does B9 bind (human hepcidin-20 [13])?
Answer: Result: no binding

Question: Does B9 bind (mouse hepcidin-25 [14])?
Answer: Result: binds

Question: Does B9 bind (rat hepcidin-25 [15])?
Answer: Result: binds

Question: What about the Kd (human hepcidin-22 [16]) of the same binder?
Answer: Its Kd is about 209 nM.

Question: Does B9 bind (human hepcidin-25 [17])?
Answer: Result: binds
